Here are results for two sequences from publication PMC5434802.

Holding throughout (assay): EMSA
What all share (conditions): EMSA conditions not in material; end-labelled fragments pre-incubated with Fis and/or FNR before RNA polymerase

Data set [1] addresses FNR D154A;RNA polymerase D154A (Escherichia coli K-12?;Escherichia coli) (UniProt P0A9E5+P0A7Z4+P0A8V2+P0A8T7+P0A800+P00579).
Data set [2] concerns the target T1, FNR D154A D154A (Escherichia coli K-12?) (UniProt P0A9E5).
T1 sequence: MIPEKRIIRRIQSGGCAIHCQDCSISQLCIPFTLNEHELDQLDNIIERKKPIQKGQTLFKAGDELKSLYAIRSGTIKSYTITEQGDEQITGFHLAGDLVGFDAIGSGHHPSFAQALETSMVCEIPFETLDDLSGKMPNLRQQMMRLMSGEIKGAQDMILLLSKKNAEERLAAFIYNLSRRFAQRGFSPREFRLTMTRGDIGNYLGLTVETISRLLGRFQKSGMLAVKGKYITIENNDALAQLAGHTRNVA

Data set [3] has as its target Fis;FNR D154A;RNA polymerase D154A (Escherichia coli K-12?;Escherichia coli K-12?;Escherichia coli) (UniProt P0A6R3+P0A9E5+P0A7Z4+P0A8V2+P0A8T7+P0A800+P00579).
The target in data set [4] is Fis;FNR D154A D154A (Escherichia coli K-12?;Escherichia coli K-12?) (UniProt P0A6R3+P0A9E5).
Data set [5] deals with RNA polymerase (Escherichia coli) (UniProt P0A7Z4+P0A8V2+P0A8T7+P0A800+P00579).
Data set [6] addresses T2, Fis (Escherichia coli K-12?) (UniProt P0A6R3).
T2 sequence: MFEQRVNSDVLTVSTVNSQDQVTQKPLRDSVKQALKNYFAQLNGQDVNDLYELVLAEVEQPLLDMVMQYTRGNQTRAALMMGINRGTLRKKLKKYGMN

On to “AGCTTACATTGCTCGCCCCTATGTGTAACAAATAACCACACTGTGAATGTTGTCTTTAATCAATTGTAAGTGCATGTAAAATACCACTTTAGAGTTAGTCAGG / AATTCCTGACTAACTCTAAAGTGGTATTTTACATGCACTTACAATTGATTAAAGACAACATTCACAGTGTGGTTATTTGTTACACATAGGGGCGAGCAATGTA [pnrf97 E. coli K-12]”, for which the binding entry in data set [1] is “binds more weakly”; in data set [2], “binds”; in data set [3], “binds more weakly”; in data set [4], “binds”; in data set [5], “binds”; in data set [6] it was “binds”.
“AATTCCTGACTAACTCTAAAGTGGTATTTTACATGCACTTACAATTGATTAAAGACAACATTCACAGTGTGGTTATTTGTTACACTTAGGGGCGAGCAATGTA / AGCTTACATTGCTCGCCCCTAAGTGTAACAAATAACCACACTGTGAATGTTGTCTTTAATCAATTGTAAGTGCATGTAAAATACCACTTTAGAGTTAGTCAGG [pnrf97 EHEC]”: the binding result in data set [2], in data set [4] and in data set [6] was “binds” throughout.
